Measurements taken from doi:10.1101/487769.
“And” between values parts separate entries of the source, which are not always exact repeats. Equal entries are not always repeated.

Molecular target: Hfq-FLAG (Yersinia pestis Hfq with C-terminal 3 x Flag tag) (Yersinia pestis)
Experiment: native gel or EMSA

**Q.** Which stoichiometry N does the source give for “Hfq-FLAG (Yersinia pestis Hfq with C-terminal 3 x Flag tag) (natural protein)” here?
**A.** 3 and 6
